Substrate in the data set: C[S+](CC[C@H](N)C(=O)O)C[C@H]1O[C@@H](n2cnc3c(N)ncnc32)[C@H](O)[C@@H]1O
As to the kind of experiment: purified protein. In kind it is biochemical, Amycolatopsis sp. CA-128772. The settings on record: KF 100 mM (methods text says 200 mM), Tris-HCl 50 mM pH 7.8, 50 °C, 10 min.

In general, Km refers to the substrate concentration at which the rate is half of its maximum. A word on the kcat: it is the maximal rate divided by the concentration of active sites. By kcat/Km is commonly meant the second-order rate constant that governs catalysis at low substrate concentration.

B1: Fam (Amycolatopsis sp. CA-128772) (protein)
chain: MAKPSRPIIAFMSDLGITDDSVAQCKGLMLSVCPDVTIVDVCHTMKPWDVEEGARYIVDLPRLFPEGTVFATTTYPATGTTTRSVALRIKQAAKGGARGQWAGSGAGFERAEGSYIYIAPNNGLLTSVIEEHGYVEAYEVSSTEVIPEQPEPTFYSREMVALPSAHLAAGFPLEKVGRPLADDEIVRFERAKPAQNDDGELVGVVTAIDHPFGNVWTNIHREDLEKLGAGYGTRLRITLDEVLPFDLPLSPTFADAGPIGTPVAYLSSRGYLALARNAASLAYPYNLNAGISVRVVAA
Regarding B1, the Michaelis-Menten constant (Km) came to 77.17 ± 14.10 µM, the kcat was found to be 0.00285 s⁻¹ and the catalytic efficiency (kcat/Km) was 37 M⁻¹ s⁻¹.

Source of the values: publication PMC9234330, “Identification of Two Novel Fluorinases From Amycolatopsis sp. CA-128772 and Methanosaeta sp. PtaU1.Bin055 and a Mutant With Improved Catalytic Efficiency With Native Substrate” (Frontiers in Bioengineering and Biotechnology, 2022).
